The labels stand for the following.
B1: 16-D10-E1-E1 (antibody, human IgG1, kappa, V domains shown)
VH: EVQLQQSGPELVRPGVSVKISCKGSGYTFTDYAMHWVKQSHAKSLEWIGVINTYSGNTYYSQKFKGKATMTVDKSSSTAYMELARLTSEDSAIYYCARGAGYFPYWYFDVWGAGTTVTVSS
VL: DIQMIQSPSYLAASPGETITINCRASKSISKYLAWYQEKPGKTNKLLIYSGSTLQSGIPSRFSGSGSGTDFTLTISSLEPEDFAMYYCQQHYEYPYTFGGGTKLEIKR
B2: 16-B6-G3-E10 (antibody, human IgG1, kappa, V domains shown)
VH: EVQLQQSGTELVRPGALVKLSCKTSGFNIKDCYMHWVKQRPEQGLEWIGWIDPENGNTIYDPKFQGKATITADTSSYTAYLQLSSLTSEDTAVYYCARSRARGYAMDYWGQGTSVTVTS
VL: DIVMTQSPASLAVSLGQRATISCRASQSVSTSSYSYMHWYRQIPGQPPKLLIKYASNLESGVPARFSGSGSGTDFTLNIHPVEEEDTATYYCQHSWEIPRTFGGGTKLELKR
B3: 28-F8-C4-A8 (antibody, human IgG1, kappa, V domains shown)
VH: EVQLQQSGAELVQPGASMKLSCKTSGYTFTTYDINWVRQRPEQGLEWIGWIFPGDGTTKYNEKFKGKATLTTDKSSSTAYMHLSRLTSEDSVVYFCARTPWFDYWGQGTTLTVSS
VL: DIVLSQSPAIMSASPGEKVIMTCSASSSISYMYWYQQKPGTSPKRWIYDTSKLASGVPARFSVSGSGTSYSLTISSMEAEDAATYYCHQRSSYPTFGGGTKLELKR
B4: 28-B1-E8-C11 (antibody, human IgG1, kappa, V domains shown)
VH: EVKLVESGAVLVKPGASVKISCKASGYTLSDFNMDWVKQSQGKSLEWVGDINPNYDTITYNQKFRGKATLTVDRSSNTAYMELRSLTSEDSAVYYCARGELGRYFYVWGAGTTVTVSS
VL: DIQLTQPPASLSASVGETVTITCRASENVYSYLAWYRQKQGRSPQLLVYNAKTLPEGVPSRFSGSGSGTQFSLKINSLQTEDLGDYYCQHHYGTPWTFGGGTKLEIKR
B5: 34-H11-D9-F6 (antibody, human IgG1, kappa, V domains shown)
VH: EVQLQQSGAELVKPRASVRLSCRASGYTFTSYWMHWVKQRPGQGLEWIGMIHPNSGSTNYNEKFKSKATLTVDKSSSTAYMQLSSLTSEDSAVYFCARERFGLLRYFDYWGQGTTLTVSS
VL: DIVMTQSPSSMYASLGERVTITCKASQDINSFLSWFQQKPGKSPKTLLYRANRLMDGVPSRFSGSGSGQDFSLTISSREYEDMGIYYCLQYDEFPFTFGSGTKLELKR
B6: 19-F1-E9-B11 (antibody, human IgG1, kappa, V domains shown)
VH: EVQLQQSGPSLVKPSQTLSLTCSVTGGSITSFYWNWIRKFPGNKLEYMGYISSSGSTYYNPSLKSRISITRDTSKNQSYLQLNSVTAEDTATYYCARGGVHYGFGDYWGQGTSVTVSS
VL: DIVMTQSAPSVPVTPGESVSISCRSSKSLLHSNGNTYLYWFLQRPGQSPQLLIYRMSNLASGVPDRFSGSGSGTAFTLRISRVEAEDVGVYYCMQHLEYPLTFGAGTKLELKR
B7: cAb2-z1-p9 (antibody, human IgG1, kappa, V domains shown)
VH: EVKLVESGAVLVKPGASVKISCKASGYTLSDFNMDWVKQSQGKSLEWVGDINPNYDTITYNQKFRGKATLTVDRSSNTAYMELRSLTSEDSAVYYCARGELGRYFYVWGAGTTVTVSS
VL: DIQLTQPPSSLSASVGDRVTITCRASENVYSYLAWYQQKPGRSPQLLVYNAKTLPEGVPSRFSGSGSGTQFTLTISSLQPEDFADYYCSHHYGTPWTFGGGTKVEIKR
B8: cAb1-z0-p7 (antibody, human IgG1, kappa, V domains shown)
VH: EVQLVESGGGLVKPGGSLRLSCAASGFTFSSYGMSWVRQAPGKGLEWVSSISGSGSYTYYPDSLKGRFTISRDNAKNSLYLQMNSLRAEDTAVYYCARQQGYWYFDVWGQGTTVTVSS
VL: DIVMTQTPLSLPVTPGEPASISCRASQSLASSYGKTYLSWYLQKPGQSPQLLIYGISNRFSGVPDRFSGSGSGTDFTLKISRVEAEDVGVYYCLHGTHQPLTFGQGTKLEIKR
B9: cAb1-z3-p7 (antibody, human IgG1, kappa, V domains shown)
VH: EVQLVESGGGLVKPGGSLRLSCAASGFTFSSYGMSWVRQAPGKRLEWVSSISGSGSYTYYPDSLKGRFTISRDNAKNSLYLQMNSLRAEDTAVYYCARQQGYWYFDVWGQGTTVTVSS
VL: DVVMTQTPLSLPVTPGEPASISCRASQSLASSYGKTYLSWYLQKPGQSPQLLIYGISNRFSGVPDRFSGSGSGTDFTLKISRVEAEDVGVYYCLHGTHQPLTFGQGTKLEIKR
B10: cAb1-z5-p7 (antibody, human IgG1, kappa, V domains shown)
VH: EVQLVESGGGLVKPGGSLRLSCAASGFTFSSYGMSWVRQAPGKRLEWVASISGSGSYTYYPDSLKGRFTISRDNAKNSLYLQMNSLRAEDTAVYYCARQQGYWYFDVWGQGTTVTVSS
VL: DVVMTQTPLSLPVTPGEPASISCRASQSLASSYGKTYLSWYLQKPGQSPQLLIYGISNRFSGVPDRFSGSGSGTDFTLKISRVEAEDVGVYYCLHGTHQPLTFGQGTKLEIKR
B11: cAb2-z5-p6 (antibody, human IgG1, kappa, V domains shown)
VH: QVQLVESGAVVKKPGASVKVSCKASGYTLSDFNMDWVRQAPGKSLEWMGDINPNYDTITYNQKFRGRVTLTVDRSINTAYMELSRLRSDDTAVYYCARGELGRYFYVWGAGTMVTVSS
VL: DIQLTQPPSSLSASVGDRVTITCRASENVYSYLAWYQQKPGRSPQLLVYNAKTLPEGVPSRFSGSGSGTQFTLTISSLQPEDFADYYCSHHYGTPWTFGGGTKVEIKR

A value given as a limit tells only on which side of the number the result lay.

For the first experiment, the target named is Human B7-H3-His protein (human) (UniProt Q5ZPR3). The experiment can be described thus: BLI, Fortebio Octet R2, antibody on AMQ sensor, human B7-H3-His in solution.
Turning to B1, the Kd (as a rule, a measure of binding affinity in units of concentration) turned out to be 0.0877 nM; the koff – broadly, the first-order rate constant of dissociation – worked out at 0.000142 s⁻¹; the kon (usually the rate constant with which the complex forms) amounted to 1.62e+06 M⁻¹ s⁻¹.

For B2, the Kd was below 0.001 nM, the koff is below 1e-07 s⁻¹ and the kon came to 1.3e+06 M⁻¹ s⁻¹.

As to B3, the Kd worked out at 0.0434 nM, the koff worked out at 7.56e-05 s⁻¹ and the kon came out at 1.74e+06 M⁻¹ s⁻¹.

Consider B4, for which the equilibrium dissociation constant (Kd) was determined as 0.0714 nM, the koff is 8.49e-05 s⁻¹ and the kon stood at 1.19e+06 M⁻¹ s⁻¹.

B5 showed a dissociation constant Kd of 0.0522 nM, a koff of 7.52e-05 s⁻¹ and a kon of 1.44e+06 M⁻¹ s⁻¹.

Molecule B6 registered a dissociation constant Kd of 2.32 nM, a koff of 0.000408 s⁻¹ and a kon of 176000 M⁻¹ s⁻¹.

The target is the same in a further experiment. Kind of experiment: SPR, Biacore 8K, antibody captured by anti-human IgG Fc on CM5, B7-H3 Human-His as analyte, 1:1 model. (SPR reads the build-up and loss of mass on a sensor chip optically.)
B4: the Kd is 5.91 nM, the koff worked out at 0.000846 s⁻¹ and the kon is 143000 M⁻¹ s⁻¹.

As for B7, the Kd was found to be 4.85 nM, the koff amounted to 0.000802 s⁻¹ and the on-rate (kon) is 165000 M⁻¹ s⁻¹.

B8 gave a Kd of 6.53 nM, a koff of 8.2e-05 s⁻¹ and a kon of 12600 M⁻¹ s⁻¹.

As to B9, the Kd amounted to 4.02 nM, the dissociation rate constant (koff) is 6.87e-05 s⁻¹ and the kon is 17100 M⁻¹ s⁻¹.

B10 gave a Kd of 3.51 nM, a koff of 7.21e-05 s⁻¹ and a kon of 20500 M⁻¹ s⁻¹.

Regarding B11, the equilibrium dissociation constant (Kd) was 6.6 nM, the off-rate constant (koff) was 0.00122 s⁻¹ and the kon turned out to be 184000 M⁻¹ s⁻¹.
